Data as given in US12383631 (BRIGHT PEAK THERAPEUTICS, dated 2025).

T1: IL-18 receptor (IL-18Rα/IL-18Rβ) on cells (HEK-Blue IL18R reporter cells, NK-92, KG-1) (human, UniProt Q13478 19-541; O95256 20-599)
T1 sequence (looked up) 1: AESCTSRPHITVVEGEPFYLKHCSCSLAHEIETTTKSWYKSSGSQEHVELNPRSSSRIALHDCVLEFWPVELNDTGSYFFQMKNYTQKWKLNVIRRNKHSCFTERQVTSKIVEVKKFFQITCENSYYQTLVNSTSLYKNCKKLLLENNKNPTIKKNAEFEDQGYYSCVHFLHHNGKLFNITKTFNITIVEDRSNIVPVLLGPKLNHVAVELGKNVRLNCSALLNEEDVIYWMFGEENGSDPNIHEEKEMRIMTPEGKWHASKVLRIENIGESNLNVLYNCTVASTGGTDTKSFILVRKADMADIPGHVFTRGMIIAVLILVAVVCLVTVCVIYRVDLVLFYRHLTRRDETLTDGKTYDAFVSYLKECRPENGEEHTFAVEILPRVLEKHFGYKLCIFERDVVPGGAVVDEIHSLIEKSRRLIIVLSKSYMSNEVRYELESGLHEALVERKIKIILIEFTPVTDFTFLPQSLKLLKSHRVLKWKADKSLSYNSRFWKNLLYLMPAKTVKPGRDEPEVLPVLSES
T1 sequence (looked up) 2: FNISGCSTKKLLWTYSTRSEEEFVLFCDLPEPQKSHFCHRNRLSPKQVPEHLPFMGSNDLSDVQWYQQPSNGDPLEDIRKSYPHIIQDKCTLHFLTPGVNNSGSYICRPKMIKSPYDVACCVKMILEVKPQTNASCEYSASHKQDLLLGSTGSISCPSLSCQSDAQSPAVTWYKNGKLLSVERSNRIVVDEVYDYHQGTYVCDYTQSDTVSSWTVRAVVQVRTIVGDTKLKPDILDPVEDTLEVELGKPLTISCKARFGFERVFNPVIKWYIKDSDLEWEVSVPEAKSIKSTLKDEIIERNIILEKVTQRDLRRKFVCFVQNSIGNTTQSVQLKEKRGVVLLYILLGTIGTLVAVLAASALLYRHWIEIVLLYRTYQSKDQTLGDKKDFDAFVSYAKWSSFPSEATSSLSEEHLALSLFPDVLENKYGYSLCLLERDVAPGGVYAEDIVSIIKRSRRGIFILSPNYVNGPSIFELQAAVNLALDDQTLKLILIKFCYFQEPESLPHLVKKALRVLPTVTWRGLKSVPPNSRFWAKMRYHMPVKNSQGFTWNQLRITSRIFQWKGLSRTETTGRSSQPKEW

B1: IL-18 polypeptide of SEQ ID NO: 30 (E6K, V11I, C38A, K53A, T63A, C76A, C127A) (ligand)
chain: YFGKLKSKLSIIRNLNDQVLFIDQGNRPLFEDMTDSDARDNAPRTIFIISMYADSQPRGMAVAISVKCEKISTLSAENKIISFKEMNPPDNIKDTKSDIIFFQRSVPGHDNKMQFESSSYEGYFLAAEKERDLFKLILKKEDELGDRSIMFTVQNED
notes: also called C086
B2: human IL-18BP-His (other)
chain: TPVSQTTTAATASVRSTKDPCPSQPPVFPAAKQCPALEVTWPEVEVPLNGTLSLSCVACSRFPNFSILYWLGNGSFIEHLPGRLWEGSTSRERGSTGTQLCKALVLEQLTPALHSTNFSCVLVDPEQVVQRHVVLAQLWAGLRATLPPTQEALPSSHSSPQQQG
notes: also called His-tagged human IL-18BP; not shown: His tag

Experiments:
[1] = biological target: B2; assay: AlphaLISA of free IL-18BP after incubation with IL-18BP-His
Description: (§1) Under subdued light, 12.5 µl of pre-mixed Donor beads were added, followed by a short centrifugation step at 150 g, and incubated for 30 minutes at 20° C. under shaking at 750 rpm with no light. AlphaLisa signal was then measured on an Enspire plate reader (Perkin Elmer) using 680 and 615 nm as excitation and emission wavelengths respectively.

[2] = biological target: T1, IL-18 receptor (IL-18Rα/IL-18Rβ) on …; assay: cell-based or functional assay
[3] = biological target: T1, IL-18 receptor (IL-18Rα/IL-18Rβ) on …; assay: cell-based or functional assay; remark: listed apart in the source
[4] = biological target: T1, IL-18 receptor (IL-18Rα/IL-18Rβ) on …; assay: cell-based or functional assay; remark: listed apart in the source
[5] = biological target: T2, Composition B (Atezolizumab/Tecentriq conjugated to IL-18 polypeptide of SEQ ID NO: 30) (human, UniProt P0DOX5 2-449 = IgG part; P0DOX7 1-214; Q14116 37-193, chemical linker to the antibody; site not stated for this composition; chemical linker to IL-18; site not stated for this composition); assay: AlphaLISA of free IL-18BP after incubation with IL-18BP-His
T2 construct: immunocytokine
Description: as §1

Binder: B1
- Kd [1]: 24600 pM
- EC50, HEK-Blue IL18R reporter cells [2]: 0.034 pM
- EC50, IFNγ secretion, PD-1 positive KG-1 cells [3]: 8 pM
- EC50, IFNγ secretion, parental KG-1 cells [3]: 12 pM
- EC50, IFNγ secretion, NK92 cells [4]: 2 pM

Binder: B2
- Kd [5]: 6380 pM
